Source: publication PMC10167327 (2023)
Values belong to the binder of their own block, whether it stands above or below them.

B3: Vtc4* (Vtc4(1–487), SPX and TTM domains of Vtc4 without the transmembrane domain) (domain or fragment)
chain: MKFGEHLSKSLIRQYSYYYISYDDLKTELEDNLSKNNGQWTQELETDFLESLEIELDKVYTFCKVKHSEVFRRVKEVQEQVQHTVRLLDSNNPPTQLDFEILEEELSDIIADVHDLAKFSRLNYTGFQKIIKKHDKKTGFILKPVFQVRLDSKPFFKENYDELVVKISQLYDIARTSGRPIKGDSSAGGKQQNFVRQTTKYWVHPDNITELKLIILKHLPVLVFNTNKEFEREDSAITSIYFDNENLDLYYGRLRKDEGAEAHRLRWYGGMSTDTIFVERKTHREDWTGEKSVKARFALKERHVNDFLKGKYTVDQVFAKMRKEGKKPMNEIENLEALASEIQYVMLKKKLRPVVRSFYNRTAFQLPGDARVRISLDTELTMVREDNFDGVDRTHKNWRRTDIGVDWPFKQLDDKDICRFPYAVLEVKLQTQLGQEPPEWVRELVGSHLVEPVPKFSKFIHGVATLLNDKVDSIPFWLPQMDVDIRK
modifications: RED-tris-NTA 2nd generation dye on the His tag (MST); RED-NHS 2nd generation dye (MST with TTM2)

Columns and labels:
[1] = target: B3; test: MST
[2] = target: TTM4 (TTM domain of Vtc4, Vtc4(192–487)) (S. cerevisiae, UniProt P47075 192-487, RED-tris-NTA 2nd generation dye on the His tag); test: MST
[3] = target: B3; test: MST; remark: listed apart in the source
[4] = target: B3; test: MST; 2.5 mM IP6
[5] = target: B3; test: MST; 2.5 mM 5-IP7
[6] = target: B3; test: MST; +100 mM NaCl
[7] = target: SPX2 N121A (S. cerevisiae, UniProt P43585 1-201, N121A); test: MST
[8] = target: SPX2 K127A (S. cerevisiae, UniProt P43585 1-201, K127A); test: MST
[9] = target: SPX2 Y19F (S. cerevisiae, UniProt P43585 1-201, Y19F); test: MST
[10] = target: SPX2 S187A (S. cerevisiae, UniProt P43585 1-201, serine 187 to alanine); test: MST
[11] = target: SPX2 S189A (S. cerevisiae, UniProt P43585 1-201, serine 189 to alanine); test: MST

Chain of TTM4 (TTM domain of Vtc4, Vtc4(192–487)) (P47075 192-487): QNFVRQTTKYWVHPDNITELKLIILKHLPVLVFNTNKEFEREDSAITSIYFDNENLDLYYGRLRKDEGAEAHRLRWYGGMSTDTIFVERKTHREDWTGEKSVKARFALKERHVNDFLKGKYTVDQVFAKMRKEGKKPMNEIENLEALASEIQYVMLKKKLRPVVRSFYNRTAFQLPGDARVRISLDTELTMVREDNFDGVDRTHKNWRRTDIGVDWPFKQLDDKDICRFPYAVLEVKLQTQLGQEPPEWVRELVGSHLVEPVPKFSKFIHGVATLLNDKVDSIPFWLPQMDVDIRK

Kd [1]: 500 µM
B1: SPX2∆α7 (Vtc2(1–182)) (domain or fragment)
chain: MLFGVKLANEVYPPWKGSYINYEGLKKFLKEDSVKDGSNDKKARWDDSDESKFVEELDKELEKVYGFQLKKYNNLMERLSHLEKQTDTEAAIKALDADAFQRVLEELLSESTELDNFKRLNFTGFAKIVKKHDKLYPKYPSVKSLLEVRLKELPSHSEEYSPLLYRISFLYNILRSNFNTAS

Kd [2]: 264 µM | Kd [3]: 18.8 µM | Kd [4]: > 300 µM | Kd [5]: > 1200 µM | Kd [6]: 91 µM
B2: SPX2 (SPX domain of Vtc2, Vtc2(1–201)) (domain or fragment)
chain: MLFGVKLANEVYPPWKGSYINYEGLKKFLKEDSVKDGSNDKKARWDDSDESKFVEELDKELEKVYGFQLKKYNNLMERLSHLEKQTDTEAAIKALDADAFQRVLEELLSESTELDNFKRLNFTGFAKIVKKHDKLYPKYPSVKSLLEVRLKELPSHSEEYSPLLYRISFLYNILRSNFNTASEPLASASKFSSIVSNDIDM

Binder: B3
Kd [7]: 118 µM | Kd [8]: 166 µM | Kd [9]: 633 µM | Kd [10]: 30 µM | Kd [11]: 71 µM
